Measured values taken from article PMC548335 (Nucleic Acids Research, 2005).

T1: GST-Pta1 (yeast, UniProt Q01329 1-785)
T1 sequence: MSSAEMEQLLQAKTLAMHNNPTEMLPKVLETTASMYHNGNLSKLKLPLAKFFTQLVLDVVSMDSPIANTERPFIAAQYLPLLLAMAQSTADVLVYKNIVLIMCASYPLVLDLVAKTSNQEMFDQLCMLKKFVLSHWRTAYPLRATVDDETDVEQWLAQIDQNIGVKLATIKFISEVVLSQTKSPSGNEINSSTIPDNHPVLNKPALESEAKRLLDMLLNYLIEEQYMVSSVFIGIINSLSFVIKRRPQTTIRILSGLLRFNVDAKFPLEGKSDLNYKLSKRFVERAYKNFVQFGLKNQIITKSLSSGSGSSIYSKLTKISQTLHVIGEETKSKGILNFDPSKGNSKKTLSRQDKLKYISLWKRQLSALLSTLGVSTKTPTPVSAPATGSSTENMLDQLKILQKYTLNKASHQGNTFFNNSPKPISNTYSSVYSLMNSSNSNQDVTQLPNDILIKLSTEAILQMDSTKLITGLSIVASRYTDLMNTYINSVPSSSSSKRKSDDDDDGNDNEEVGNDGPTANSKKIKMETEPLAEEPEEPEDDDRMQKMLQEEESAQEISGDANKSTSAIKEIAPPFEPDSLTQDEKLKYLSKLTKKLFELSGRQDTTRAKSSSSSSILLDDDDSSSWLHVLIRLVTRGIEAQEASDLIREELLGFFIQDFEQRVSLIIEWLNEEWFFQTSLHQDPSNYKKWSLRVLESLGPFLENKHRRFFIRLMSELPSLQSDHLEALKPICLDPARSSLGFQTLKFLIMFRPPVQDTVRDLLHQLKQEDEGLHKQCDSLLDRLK

T2: GST-hTFIIB (human, UniProt Q00403 1-316)
T2 sequence: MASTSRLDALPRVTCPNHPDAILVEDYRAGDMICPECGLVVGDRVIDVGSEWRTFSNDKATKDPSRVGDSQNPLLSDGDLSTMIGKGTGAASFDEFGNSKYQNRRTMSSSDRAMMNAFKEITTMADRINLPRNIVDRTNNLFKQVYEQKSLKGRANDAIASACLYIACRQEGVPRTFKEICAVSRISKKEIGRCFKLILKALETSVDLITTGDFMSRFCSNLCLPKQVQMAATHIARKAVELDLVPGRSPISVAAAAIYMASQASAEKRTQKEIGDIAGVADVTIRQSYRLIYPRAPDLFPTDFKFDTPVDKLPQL

B1: Hat-hSsu72 (natural protein)
chain: MPSSPLRVAVVCSSNQNRSMEAHNILSKRGFSVRSFGTGTHVKLPGPAPDKPNVYDFKTTYDQMYNDLLRKDKELYTQNGILHMLDRNKRIKPRPERFQNCKDLFDLILTCEERVYDQVVEDLNSREQETCQPVHVVNVDIQDNHEEATLGAFLICELCQCIQHTEDMENEIDELLQEFEEKSGRTFLHTVCFY
B2: Hat-hSsu72Δ1-12 (domain or fragment)
chain: SSNQNRSMEAHNILSKRGFSVRSFGTGTHVKLPGPAPDKPNVYDFKTTYDQMYNDLLRKDKELYTQNGILHMLDRNKRIKPRPERFQNCKDLFDLILTCEERVYDQVVEDLNSREQETCQPVHVVNVDIQDNHEEATLGAFLICELCQCIQHTEDMENEIDELLQEFEEKSGRTFLHTVCFY

Legend:
GST-Pta1 = target: T1, GST-Pta1; assay: pull-down
GST-hTFIIB = target: T2, GST-hTFIIB; assay: pull-down

Binder | binding result (GST-Pta1) | binding result (GST-hTFIIB)
B1 | binds | binds
B2 | binds | binds
